For this assay, the target named is T1, human epidermal growth factor receptor (EGFR) (Homo sapiens (A431 and FaDu cells), UniProt P00533).
T1 construct: human EGFR, full-length receptor presented by living A431 (epidermoid carcinoma) and FaDu (squamous carcinoma) cells; also called human EGFR; source: endogenous, on living A431 and FaDu cells
Briefly: radioligand binding; ^99mTc-labelled sdAb on A431 and FaDu cells, 1 h on ice, with or without pre-blocking by a 40-fold excess of unlabeled Cetuximab; read-out % ID/mg protein. The note with it: one partner purified.

B1: EGFR-specific single-domain antibody EG2 (VHH)
VHH: QVKLEESGGGLVQAGDSLRVSCAASGRDFSDYVMGWFRQAPGKEREFVAAISRNGLTTRYADSVKGRFTISRDNDKNMVYLQMNSLKPEDTAVYYCAVNSAGTYVSPRSREYDYWGQGTQVTVSS
notes: an initial methionine was added by the NcoI site; Camelid-derived sdAb; Intradomain disulfide bridge formed in about 98% of the purified protein; also called sdAb EG2; ^99mTc-EG2; source: E. coli SHuffle T7 Express, cytoplasm (pET-28b:EG2), purified (Ni-IDA IMAC); not shown: His6, C-terminal, kept
Regarding B1, the binding result was “binds”.

These data come from publication PMC3818982 (Microbial Cell Factories, 2013).
